The values that follow come from patent publication US20250282881A1 (SHANGHAI EPIMAB BIOTHERAPEUTICS, published 2025).

As usually defined, the koff is the first-order rate constant of dissociation. By EC50 is commonly meant the concentration needed to bring the measured effect to its halfway point. Read a low EC50 as greater potency.

Test [1] has as its target T1, recombinant human OX40/His fusion protein (Novoprotein, CB17) (human, UniProt P43489 29-216).
T1 construct: Bought protein
T1 sequence: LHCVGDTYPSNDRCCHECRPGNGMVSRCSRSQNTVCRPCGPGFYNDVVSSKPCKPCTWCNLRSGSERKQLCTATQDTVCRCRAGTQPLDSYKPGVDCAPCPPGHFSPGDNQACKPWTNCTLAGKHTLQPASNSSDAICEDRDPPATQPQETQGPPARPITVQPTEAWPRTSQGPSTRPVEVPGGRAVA
Briefly: BLI (Octet RED96), antibody on AHC sensor, OX40/His as analyte, test group 3. As to the method: (§1) All 17 antibodies in Table 4 were expressed by transient transfection of HEK293 cell, purified by Protein A chromatography, and assayed for and ranked by dissociation rate constant (koff). Briefly, antibodies binding affinities and kinetics were characterized by Octet® RED96 biolayer interferometry (Pall FortéBio LLC). Antibodies were captured by Anti-hIgG Fc Capture (AHC) Biosensors (Pall) at a concentration of 100 nM for 120 seconds. After that, sensors were dipped into running buffer (1× pH 7.2 PBS, 0.05% Tween 20, 0.1% BSA) for 60 seconds to check the baseline, then dipped into recombinant human OX40/His fusion protein (Novoprotein, CB17) at assigned concentration for 200 seconds to measure binding, followed by dipped into running buffer for 600 seconds for dissociation. The assay was conducted in four test groups (as listed in Table 5) all containing the EM1007-044c chimeric antibody as the basis for normalization. The association and dissociation curves were fitted to a 1:1 Langmuir binding model using ForteBio Data Analysis software (Pall) to obtain the off-rate constants as shown in Table 5 below. The off-rate of each antibody was compared to that of the EM1007-mAb044c chimeric antibody in the same test group obtained in parallel to produce the corresponding off-rate ratio, serving as a normalized index. The normalized index of an antibody indicates higher affinity for human OX40.

The target of test [2] is T1, recombinant human OX40/His fusion …. Briefly: BLI (Octet RED96), antibody on AHC sensor, OX40/His as analyte, test group 1 (the reference itself). The procedure:
as §1, with “The normalized index of an antibody indicates higher affinity for human OX40.” left out
In general terms: In BLI a coated tip is dipped into the sample, and binding shifts an interference pattern.

For test [3] the target is unchanged. Briefly: BLI (Octet RED96), antibody on AHC sensor, OX40/His as analyte, test group 4. As to the method: as §1
For test [4] the target is unchanged. The experiment in a line: BLI (Octet RED96), antibody on AHC sensor, OX40/His as analyte, test group 2 (the reference itself). As to the method:
as §1, with “The normalized index of an antibody indicates higher affinity for human OX40.” left out

For test [5] the target is unchanged. Briefly: BLI (Octet RED96), antibody on AHC sensor, OX40/His as analyte, test group 4 (the reference itself). The procedure: as §1, with “The normalized index of an antibody indicates higher affinity for human OX40.” left out
The target is the same in test [6]. Briefly: BLI (Octet RED96), antibody on AHC sensor, OX40/His as analyte, test group 2. The procedure: as §1
For test [7], the target named is T2, human OX40 on cells (CHO-K1-hOX40, CHO-OX40, Jurkat-OX40 reporter cells) (human, UniProt P43489 29-277).
T2 construct: also called human OX40-transfected CHO cell; CD134
T2 sequence: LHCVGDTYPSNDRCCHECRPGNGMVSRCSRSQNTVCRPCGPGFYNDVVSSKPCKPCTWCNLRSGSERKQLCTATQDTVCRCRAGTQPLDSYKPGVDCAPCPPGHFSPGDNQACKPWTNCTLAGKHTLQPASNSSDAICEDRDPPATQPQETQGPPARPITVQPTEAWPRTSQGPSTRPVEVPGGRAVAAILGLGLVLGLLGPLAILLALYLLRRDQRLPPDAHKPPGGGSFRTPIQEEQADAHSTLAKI
Briefly: FACS on CHO-K1-hOX40 cells. The procedure: (§2) The purified chimeric antibody was designated EM1007-44c. Binding activity to human or Cyno OX40 on the cell surface was assessed by FACS. Briefly, 5×10⁵ cells were seeded into each well of a 96-well plate (Corning, #3799). Cells were centrifuged at 400 g for 5 minutes and supernatants were discarded. For each well, 100 μl of 3× serial dilution of antibody starting from 100 nM was then added and mixed with the cells. After 60 minutes of 4° C. incubation, plates were washed to remove excess antibody. […] After another round of centrifugation and washing, cells were resuspended in FACS buffer for reading on a CytoFLEX Flow Cytometer (Beckman Coulter). Median Fluorescence Intensity (MFI) readouts were plotted against antibody concentration and analyzed with GraphPad Prism 8.0. The ability of OX40 to activate downstream signaling was detected in a Jurkat-OX40-NF-κB luciferase assay. Briefly, high binding plates (Corning, #3361) were coated with 3× serial dilution of EM1007-44c starting from 100 nM at 4° C. overnight, washed, then seeded with 1×10⁵ cells per well of OX40-NF-κB reporter and incubate at 37° C. for 6 hours. At the end of incubation, ONE-Glo™ luminescence assay kit (Promega, Cat. #E6130) reagents were prepared and added according to the manufacturer's instructions. Plates were read for luminescence signals on Varioskan™ LUX microplate reader (ThermoFisher Scientific).

In test [8] the target is T2, human OX40 on cells (CHO-K1-hOX40, …). Briefly: cell-based or functional assay.
Test [9] addresses T3, cyno OX40 on cells (CHO-K1-cOX40) (cyno).
T3 construct: whole, on cells; also called Cyno OX40 on the cell surface
The experiment in a line: FACS on CHO-K1-cOX40 cells. The procedure: as §2

In test [10] the target is T1, recombinant human OX40/His fusion …. Briefly: BLI (Octet RED96), antibody on AHC sensor, OX40/His as analyte, test group 3 (the reference itself). As to the method:
as §1, with “The normalized index of an antibody indicates higher affinity for human OX40.” left out

For test [11] the target is unchanged. Briefly: BLI (Octet RED96), antibody on AHC sensor, OX40/His as analyte, test group 1. The procedure:
as §1

The target of test [12] is T4, recombinant human PD-L1/His fusion protein (Novoprotein, Cat. No. C315) (human, UniProt Q9NZQ7 19-239).
T4 construct: also called recombinant human PD-L1-his protein
The experiment in a line: BLI (Octet RED96), antibody on AHC sensor, PD-L1/His as analyte, test group 2. An excerpt:
(§3) Based on titer and purity, 10 of the 50 humanized antibodies were selected and further assayed in two groups for dissociation rate constant (koff) as shown in Table 7. Chimeric antibody EM0005-86c having VH/VL sequences identical to EM0005-mAb86 (as provided in Table 6) was used as a positive control in each group and served as a basis for normalization. Briefly, antibodies were characterized for affinities and binding kinetics by Octet® RED96 biolayer interferometry (Pall FortéBio LLC). Anti-hIgG Fc Capture (AHC) Biosensors (Pall) with antibody captured at a concentration of 100 nM for 120 seconds were dipped into running buffer (1× pH 7.2 PBS, 0.05% Tween 20, 0.1% BSA) for 60 seconds to check the baseline, then dipped into a single concentration of recombinant human PD-L1/His fusion protein (Novoprotein, Cat. No. C315) to measure binding for 200 seconds, followed by dipped into running buffer to measure dissociation for 600 seconds. The association and dissociation curves were fitted to a 1:1 Langmuir binding model using FortéBio Data Analysis software (Pall). The off-rate ratios shown in Table 7 were calculated by off-rate of a humanized antibody to that of EM0005-86c in the same test group. The off-rate ratio serves as a normalized index, so that the humanized antibodies can be compared to one another across test groups. […]

The target of test [13] is T4, recombinant human PD-L1/His fusion …. Briefly: BLI (Octet RED96), antibody on AHC sensor, PD-L1/His as analyte, test group 2 (the reference itself).
Text: as §3

For test [14] the target is unchanged. The experiment in a line: BLI (Octet RED96), antibody on AHC sensor, PD-L1/His as analyte, test group 1 (the reference itself).
Text: as §3

For test [15] the target is unchanged. The experiment in a line: BLI (Octet RED96), antibody on AHC sensor, PD-L1/His as analyte, test group 1. An excerpt: Based on titer and purity, 10 of the 50 humanized antibodies were selected and further assayed in two groups for dissociation rate constant (koff) as shown in Table 7. Chimeric antibody EM0005-86c having VH/VL sequences identical to EM0005-mAb86 (as provided in Table 6) was used as a positive control in each group and served as a basis for normalization. Briefly, antibodies were characterized for affinities and binding kinetics by Octet® RED96 biolayer interferometry (Pall FortéBio LLC). Anti-hIgG Fc Capture (AHC) Biosensors (Pall) with antibody captured at a concentration of 100 nM for 120 seconds were dipped into running buffer (1× pH 7.2 PBS, 0.05% Tween 20, 0.1% BSA) for 60 seconds to check the baseline, then dipped into a single concentration of recombinant human PD-L1/His fusion protein (Novoprotein, Cat. No. C315) to measure binding for 200 seconds, followed by dipped into running buffer to measure dissociation for 600 seconds. The association and dissociation curves were fitted to a 1:1 Langmuir binding model using FortéBio Data Analysis software (Pall). The off-rate ratios shown in Table 7 were calculated by off-rate of a humanized antibody to that of EM0005-86c in the same test group. The off-rate ratio serves as a normalized index, so that the humanized antibodies can be compared to one another across test groups. The lower off-rate ratio indicates higher affinity of an antibody for human PD-L1. HuEM0005-86-21 was selected for further investigation based on the purity and off-rate data.

T4 sequence (Q9NZQ7 19-239 limits assumed): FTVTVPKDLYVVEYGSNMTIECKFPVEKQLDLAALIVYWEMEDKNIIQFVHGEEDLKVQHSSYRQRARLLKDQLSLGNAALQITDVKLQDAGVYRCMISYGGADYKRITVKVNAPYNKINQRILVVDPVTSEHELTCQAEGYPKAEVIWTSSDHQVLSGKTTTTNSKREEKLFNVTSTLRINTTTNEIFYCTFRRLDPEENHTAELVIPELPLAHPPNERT

B1: EM1007-44c (antibody, human IgG1, V domains shown)
VH: QVQLQQSGPELVKPGASVTISCKASGHAFSSSWMNWVKQRPGKGLEWIGRIYPGDEITNYNGKFKDKATLTADKSSSTAYMQLSSLTFEDSAVYFCARDLLMPYWGQGTLVTVSA
VL: DIVMTQTAFSNPVTLGTSASISCRSSKSLLYSNGITYLYWYLQKPGQSPHLLIYQMSNLAPGVPDRFSSSGSGTDFTLRISRVEAEDVGIYYCAQNLELPFTFGSGTKLEIK
notes: also called EM1007-mAb044c; EM1007-044c
On to B1, for which the koff in [1] is 0.000305 s⁻¹; in test [3] it was 0.000279 s⁻¹; in [6], 0.000318 s⁻¹; in [11], 0.000336 s⁻¹. The “Normalized Index (off-rate ratio to EM1007-mAb044c)” value in test [2], in test [4], in test [5] and in test [10] was 100% in each case. In addition, the half-maximal effective concentration (EC50) in test [7] is 2.6 nM; in test [9] it was 2.11 nM. Further, the “OX40-Jurkat-NF-κB-Reporter, EC50” value in [8] came out at 0.43 nM. For the same molecule, in test [8], the “OX40-Jurkat-NF-κB-Reporter, Maximal fold change” value is 1.52 fold.

B2: EM0005-86c (antibody, V domains shown)
VH: QVQLQQSGAELVRPGSSVKMSCKTSGYTFTTYGINWVKQRPGQGLEWIGYIYIGNGYTEYNEKFKGKATLTSDPSSRTAYMQLSSLTSEDSAIYFCARDLMVIAPKTMDYWGQGTSVTVSS
VL: DIQMNQSHKFMSTSVGDRVSITCKASQDVGTAVAWYQQKPGQSPKLLIYWASTRHTGVPDRFTGGGSGTDFTLTISNVQSEDLADYFCQQYSSYPYTFGGGTKLEMK
notes: Chimeric anti-PD-L1; captured on anti-human IgG Fc sensors
Regarding B2, the results for the koff in test [12] and in [15] were 0.000146 s⁻¹ and 0.000272 s⁻¹, respectively. In addition, the “Off-Rate Ratio to EM0005-86c” value in test [13] and in test [14] was 100% in each case.
